The experiment has as its target T1, Heat shock transcription factor-1 (HSF-1) (human (endogenous in HCT-116)), Q00613.
T1 chain: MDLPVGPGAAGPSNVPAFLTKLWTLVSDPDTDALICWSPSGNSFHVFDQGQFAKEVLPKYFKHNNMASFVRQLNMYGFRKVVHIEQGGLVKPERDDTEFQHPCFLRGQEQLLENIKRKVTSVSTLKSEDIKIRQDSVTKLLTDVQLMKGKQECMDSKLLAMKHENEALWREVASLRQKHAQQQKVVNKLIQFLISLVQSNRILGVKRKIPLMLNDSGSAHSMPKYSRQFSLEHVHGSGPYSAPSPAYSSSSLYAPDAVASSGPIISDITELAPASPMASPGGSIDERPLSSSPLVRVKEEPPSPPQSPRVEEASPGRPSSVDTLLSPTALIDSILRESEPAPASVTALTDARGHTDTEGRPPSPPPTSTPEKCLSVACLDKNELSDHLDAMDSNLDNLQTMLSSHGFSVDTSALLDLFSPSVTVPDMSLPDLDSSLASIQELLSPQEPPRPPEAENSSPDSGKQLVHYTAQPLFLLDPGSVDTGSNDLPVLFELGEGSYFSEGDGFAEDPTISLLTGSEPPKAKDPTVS
Put plainly: cross-linking; HCT-116 cell lysates (control, heat shock, vitexin-treated); 10 ug protein with 2 mM glutaraldehyde, room temperature, 30 min, stopped with lysine; SDS-PAGE and anti-HSF-1 blot; vitexin treatment said to inhibit oligomerization. As to conditions: remark: other sources report otherwise.

The values below come from paper PMC5762521.

B1: Heat shock transcription factor-1 (HSF-1), Q00613 1-529 (natural protein)
chain: T1 chain
For B1, the stoichiometry N (in general, a count of units in the complex or per binding partner) was found to be 3.
